Substrate in this series: Nc1nc(=O)[nH]cc1F
Description: steady-state kinetics. The format is biochemical, Saccharomyces cerevisiae. As to conditions: Zn2+.

B1: yeast cytosine deaminase (yCD) (Saccharomyces cerevisiae S288C) (protein)
chain: MASKWDQKGMDIAYEEAALGYKEGGVPIGGCLINNKDGSVLGRGHNMRFQKGSATLHGEISTLENCGRLEGKVYKDTTLYTTLSPCDMCTGAIIMYGIPRCVVGENVNFKSKGEKYLQTRGHEVVVVDDERCKKIMKQFIDERPQDWFEDIGE
On to B1, for which the Michaelis-Menten constant (Km) was determined as 160 ± 10 µM, the catalytic constant (kcat) was 17 ± 0.4 s⁻¹ and the kcat/Km is 106000 M⁻¹ s⁻¹.

By Km is commonly meant the concentration of substrate that gives half-maximal velocity. One may read the kcat as the maximal rate divided by the concentration of active sites. As usually defined, the kcat/Km is the turnover number divided by the Michaelis constant.

The record behind these values is publication PMC3272785.
